{
  "source": "patent US20250121063A1",
  "about": "“COMPOSITIONS OF […] RESISTANCE TO P[…] RELATED METHODS OF USE” (priority 2023, published 2025)",
  "molecules": {"B1": {"name": "shPTGIR (nucleic acid)", "DNA": "AGCACGAGAGGAUGAAGUUUACUAGUGAAGCCACAGAUGUAGUAAACUUCAUCCUCUCGUGCC", "modifications": "expressed or natural sequence"}},
  "key": {"[1]": {"test_system": "LCMV (Lymphocytic choriomeningitis) clone 13", "details": "mouse, in vivo"}, "[2]": {"test_system": "P14 CD8+CD45.2+ T-cells", "type": "cell-based, mouse"}, "[3]": {"test_system": "B16-OVA melanoma", "experiment": "Adoptive transfer of shRNA-transduced OT-1 cells into mice bearing B16-OVA melanoma", "type": "in vivo, mouse", "details": "compared with shFF or HBSS", "source_text": "Referring to FIG. 1, this indicates a normal mouse CD8+ treated with a construct expressing: control short hairpin RNA (shFF) or short hairpin RNA against mouse PTGIR gene. OT-1 is an anti-OVA T cell receptor that recognizes ovalbumin epitope (OVA) antigen variant E1 ([…]) restricted by H2-Kb. Mouse T cells that constitutively express OT-1 (“OT-1 cells”) were transduced with a construct expressing short hairpin RNA against mouse Ptgir gene (“shPTGIR”) or control short hairpin RNA (“shFF”; against firefly luciferase).\nAt day 0, mice were inoculated with […] B16-OVA melanoma cells (these cells constitutively express the OVA protein and present OVA epitopes on cell surface MHC). On Day 7 mice received (i.v.) 1E6 adoptively transferred gene modified OT-1 cells or Hank's buffered saline solution (HBSS).\nAt day 0, mice inoculated with B16-OVA melanoma. On Day 7 mice received adoptively transferred, gene modified CD8+ cells on Day 7 or saline (HBSS).\nReferring to FIG. 2, this example was performed in the same way as Example 2."}},
  "note": "Entries after “also recorded” stand apart in the source; their conditions may differ.",
  "data": [
    {"molecule": "B1", "values": [
      {"measurement": "LAG-3 expression", "setting": "[1]", "result": "lower LAG-3 expression"},
      {"measurement": "absolute abundance of transduced CD45.2 T-cells", "setting": "[1]", "result": "higher absolute abundance; also recorded: greater absolute numbers"},
      {"measurement": "expansion of adoptively transferred cells (CD45.2+)", "setting": "[1]", "result": "highly significant expansion"},
      {"measurement": "percentage of Tim-3", "setting": "[1]", "result": "lower percentage of Tim-3"},
      {"measurement": "phenotypic markers of exhaustion", "setting": "[1]", "result": "reduced phenotypic markers of exhaustion"},
      {"measurement": "IFNγ and TNFα response to antigen stimulation", "setting": "[2]", "result": "capable of responding to antigen stimulation"},
      {"measurement": "tumor growth", "setting": "[3]; 1E6 gene modified OT-1 cells i.v. on Day 7 after B16-OVA inoculation", "result": "reduced tumor growth"},
      {"measurement": "survival", "setting": "[3]; mice with B16-OVA melanoma, OT-1 cells transferred Day 7", "result": "increased survival"}
    ]}
  ]
}
